Article doi:10.1101/2022.04.18.488656, “HNRNPH1 destabilizes the G-quadruplex structures formed by G-rich RNA sequences that regulate the alternative splicing of an oncogenic fusion transcript”

Assays:
[1] = target: T1, HNRNPH1 full-length (UniProt P31943 1-449); test: BLI; 150 mM KCl (G4); BLI: 10 mM Tris-HCl pH 7.4, 150 mM KCl, 0.005% P-20, 1 mM EDTA; EMSA: 10 mM Tris-HCl pH 7.4, 1 mM EDTA, 150 mM KCl, room temp, 3 nM RNA; FRET: same Tris/EDTA with 25 mM KCl, room temp; conditions: protein: recombinant, tags: FLAG, label: 5'-biotin
T1 sequence: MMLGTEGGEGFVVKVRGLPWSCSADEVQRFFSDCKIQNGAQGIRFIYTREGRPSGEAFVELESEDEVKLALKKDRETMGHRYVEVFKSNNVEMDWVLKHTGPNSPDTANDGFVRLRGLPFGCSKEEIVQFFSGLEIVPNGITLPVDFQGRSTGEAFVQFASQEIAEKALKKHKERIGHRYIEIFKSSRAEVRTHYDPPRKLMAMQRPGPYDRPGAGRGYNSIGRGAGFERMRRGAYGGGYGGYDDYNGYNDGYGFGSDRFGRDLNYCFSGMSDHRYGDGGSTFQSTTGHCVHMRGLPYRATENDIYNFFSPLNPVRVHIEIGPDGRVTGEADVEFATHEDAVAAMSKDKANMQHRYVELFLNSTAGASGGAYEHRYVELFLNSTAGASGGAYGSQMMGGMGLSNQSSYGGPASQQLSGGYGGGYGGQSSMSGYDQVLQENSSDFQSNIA

[2] = target: T2, HNRNPH1 qRRM1-2 (UniProt P31943 11-188); test: BLI; 150 mM KCl; BLI: 10 mM Tris-HCl pH 7.4, 150 mM KCl, 0.005% P-20, 1 mM EDTA; EMSA: 10 mM Tris-HCl pH 7.4, 1 mM EDTA, 150 mM KCl, room temp, 3 nM RNA; FRET: same Tris/EDTA with 25 mM KCl, room temp; conditions: protein: recombinant; label: 5'-biotin; parallel two-tier G4, intramolecular
T2 sequence: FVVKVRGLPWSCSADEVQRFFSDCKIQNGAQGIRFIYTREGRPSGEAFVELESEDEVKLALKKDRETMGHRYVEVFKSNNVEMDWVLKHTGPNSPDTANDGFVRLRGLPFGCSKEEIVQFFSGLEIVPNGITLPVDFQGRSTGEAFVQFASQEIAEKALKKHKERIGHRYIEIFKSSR

[3] = target: T3, HNRNPF (UniProt P52597 1-415); test: as above; conditions: protein: recombinant; label: 5'-biotin; parallel two-tier G4, intramolecular
T3 sequence: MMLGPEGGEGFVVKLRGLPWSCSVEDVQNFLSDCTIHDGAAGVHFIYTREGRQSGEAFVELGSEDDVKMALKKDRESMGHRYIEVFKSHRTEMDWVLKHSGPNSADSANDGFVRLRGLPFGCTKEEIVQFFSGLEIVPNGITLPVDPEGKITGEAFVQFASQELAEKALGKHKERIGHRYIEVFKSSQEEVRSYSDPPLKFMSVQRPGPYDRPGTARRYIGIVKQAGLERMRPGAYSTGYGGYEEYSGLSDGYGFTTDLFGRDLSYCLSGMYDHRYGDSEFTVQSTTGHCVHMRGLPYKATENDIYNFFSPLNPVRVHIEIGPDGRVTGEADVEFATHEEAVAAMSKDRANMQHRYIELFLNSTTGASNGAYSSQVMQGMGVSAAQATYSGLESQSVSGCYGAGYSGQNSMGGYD

[4] = parallel two-tier G4, intramolecular

Binder | Kd [1, 4] | Kd [2] | Kd [3] | Kd ([1]; parallel two-tier G4)
GGGCGGGGAGGAGGACGCGGUGGAAUGGG (structured_RNA) [rG3] | 1.39 ± 0.54 nM | 4 ± 0.7 nM | 0.35 nM | 
GGUGGGCGGGGAGGAGGACGCGGUGGAAU (structured_RNA) [rG2] |  |  |  | 3.1 ± 0.7 nM
ACCGGGGCAGGGGAAGAGGGGGAUU (structured_RNA) [rG1] | 1.08 ± 0.53 nM | 6 ± 0.8 nM | 0.34 nM | 
